# Results taken from patent publication US10829528B2, “Therapeutic agents for neurological and psychiatric disorders” (VIB VZW, priority 2016, dated 2020).
# Test system: primary hippocampal neurons
# Experiment: mEPSCs & mIPSCs in cultured primary hippocampal neurons (wild type)
# Format: cell-based, mouse
# Experimental: mEPSCs & mIPSCs are measured in cultured primary hippocampal neurons at baseline and following acute application of agonists. Excitatory terminals selectively express the sushi domain-containing GABABR1a isoform (ref18), where it functions to inhibit neurotransmitter release (ref 24). Acute exposure of primary hippocampal neurons from wild type mice to 30μM baclofen, a GABABR agonist, or 250 nM sAPPα (Fc cleaved) reduces the frequency of miniature excitatory postsynaptic currents (mEPSCs) by 68% (FIG. 8 a,b) and 39% (FIG. 8 c,d), respectively, with no effect on mEPSC amplitude (FIG. 8e). […] Acute application of 30 μM baclofen or 250 nM purified sAPPα reduces the frequency of miniature inhibitory postsynaptic currents (mIPSCs) by 63% (FIG. 8a, 9a) and 44% (FIG. 8c, 9b), respectively, which is blocked by pretreatment with the GABABR antagonist CGP55845 (CGP, 5 μM) (FIG. 8f, 9d). Application of sAPPα causes a minor (14%) reduction on mIPSC amplitude (FIG. 8e, 9c). […] Baclofen is known to reduce the frequencies of mEPSCs and mIPSCs, which we have also confirmed. […] To confirm that the agonist is acting through GABABR1a, the agonist is tested in cultures with shRNA mediated knockdown of GABABR1a or antisense oligonucleotides mediated exon skipping of the exon encoding the Sushi domain 1 of GABABR1a. Antagonists are tested by treatment in combination with the agonist, Baclofen. […] As an antagonist we test an antibody against the sushi domain sequence (SEQ ID No: 5): […] SWTDMDTPSRCV. An antibody specifically binding to this domain which acts as an antagonist increases the frequencies of mEPSCs and mIPSCs. sAPPα also reduces mEPSC and mIPSC frequency in App/Aplp1 dKO cultures (FIG. 8j, 9f), excluding the possibility that sAPPα interferes with a complex of full-length APP and GABABR1 to exert its effect on GABABR signaling.
# Hippocampal neurons were cultured from E18 C57/B16 wild type mice or APP/APLP1 dKO mice (provided by Ulrike Muller46) and plated on poly-D-lysine (Millipore), and laminin (Invitrogen) coated coverslips (Nalge Nunc International). Neurons were maintained in Neurobasal medium (Invitrogen) supplemented with B27, glucose, glutamax, penicillin/streptomycin (Invitrogen) and 25 μM β-mercaptoethanol.
# Single neurons from wild type or APP/APLP1 null mutant embryos (E18) were recorded within the large neuronal network at DIV 12-15. The intracellular whole-cell pipette medium contained (in mM): 136 KCl, 18 HEPES, 4 Na-ATP, 4.6 MgCl2, 15 Creatine Phosphate, 1 EGTA and 50 U/ml Phospocreatine Kinase (300 mOsm, pH 7.30). Regular external solution contained 2 mM/2 mM Ca2+/Mg2+(in mM: 140 NaCl, 2.4 KCl, 2 CaCl2), 2 MgCl2, 10 HEPES, 14 Glucose (300 mOsm, pH 7.30)) and TTX (1 μM). Pharmacological reagents (30 μM baclofen, 5 μM CGP), sAPLP1, full length sAPP and sAPP derived peptides (250 nM each) were bath applied (dissolved in external medium described above) using a separate gravity driven application inlet. Recordings were done in whole cell voltage clamp configuration at −70 mV with a double EPC-10 amplifier (HEKA Elektronik) under control of Patchmaster v2×32 software (HEKA Elektronik). Currents were low-pass filtered at 3 kHz and stored at 20 kHz. Patch pipettes were pulled from borosilicate glass using a multi-step puller (P-1000; Sutter Instruments). Pipette resistance ranged from 3 to 5 MΩ and was compensated to 75-80%. Only cells with series resistances <15 MΩ were included in analysis. All recordings were done at room temperature. Spontaneous events were detected using Mini Analysis program (Synaptosoft). mEPSCs and mIPSCs were separated on the basis of their distinct decay kinetics, using a threshold of 5 ms47. Baseline was determined from an average of 60 sec of recordings prior to protein or drug treatment. Effect of treatment was determined from an average of 30 sec recordings after 140 sec of protein or drug treatment.
molecule,measurement,setting,value
"sAPPα: soluble amyloid precursor protein α ectodomain; mouse APP695 18-612aa, Fc tag cleaved (protein) LEVPTDGNAGLLAEPQIAMFCGKLNMHMNVQNGKWESDPSGTKTCIGTKEGILQYCQEVYPELQITNVVEANQPVTIQNWCKRGRKQCKTHTHIVIPYRCLVGEFVSDALLVPDKCKFLHQERMDVCETHLHWHTVAKETCSEKSTNLHDYGMLLPCGIDKFRGVEFVCCPLAEESDSVDSADAEEDDSDVWWGGADTDYADGGEDKVVEVAEEEEVADVEEEEADDDEDVEDGDEVEEEAEEPYEEATERTTSTATTTTTTTESVEEVVRVPTTAASTPDAVDKYLETPGDENEHAHFQKAKERLEAKHRERMSQVMREWEEAERQAKNLPKADKKAVIQHFQEKVESLEQEAANERQQLVETHMARVEAMLNDRRRLALENYITALQAVPPRPHHVFNMLKKYVRAEQKDRQHTLKHFEHVRMVDPKKAAQIRSQVMTHLRVIYERMNQSLSLLYNVPAVAEEIQDEVDELLQKEQNYSDDVLANMISEPRISYGNDALMPSLTETKTTVELLPVNGEFSLDDLQPWHPFGVDSVPANTENEVEPVDARPAADRGLTTRPGSGLTNIKTEEISEVKMDAEFGHDSGFEVRHQK",reduction of mIPSC amplitude,250 nM sAPPα,14%
same,effect on mEPSC amplitude,"250 nM, acute exposure",no effect
same,reduction of mIPSC frequency,"acute application, 30 μM baclofen, 250 nM proteins",44%
same,reduction of mEPSC frequency,"acute exposure, 30 μM baclofen or 250 nM sAPPα (Fc cleaved), wild type mice",39%
